How the values were obtained:
[1] = molecular target: Fab fragment of anti-TNFα monoclonal antibody (generic name: Adalimumab) (humanized monoclonal IgG product (filing's words)); test: affinity chromatography, 55% DBC divided by immobilised ligand, 2.0 mg/mL-gel
[2] = molecular target: Fab fragment of anti-TNFα monoclonal antibody (generic name: Adalimumab) (humanized monoclonal IgG product (filing's words)); test: affinity chromatography, Fab kept after 40 CV wash, ligand […]-gel, 10.5 mg Fab loaded
[3] = molecular target: Fab fragment of anti-TNFα monoclonal antibody (generic name: Adalimumab) (humanized monoclonal IgG product (filing's words)); test: affinity chromatography, ligand […]-gel
[4] = molecular target: Fab fragment of anti-TNFα monoclonal antibody (generic name: Adalimumab) (humanized monoclonal IgG product (filing's words)); test: affinity chromatography, Fab kept after 40 CV wash, ligand 2.0 mg/mL-gel, 5.2 mg Fab loaded
[5] = molecular target: Fab fragment of anti-TNFα monoclonal antibody (generic name: Adalimumab) (humanized monoclonal IgG product (filing's words)); test: affinity chromatography, ligand 2.0 mg/mL-gel
[6] = molecular target: Fab fragment of anti-TNFα monoclonal antibody (generic name: Adalimumab) (humanized monoclonal IgG product (filing's words)); test: affinity chromatography, Fab kept after 40 CV wash, ligand 2.0 mg/mL-gel, 4.8 mg Fab loaded
[7] = molecular target: Fab fragment of anti-TNFα monoclonal antibody (generic name: Adalimumab) (humanized monoclonal IgG product (filing's words)); test: affinity chromatography, Protein-G Sepharose FF

Substance | Binding capacity per ligand density [1] | Recovery rate [2] [%] | 55% DBC [3] [mg/mL-gel] | Recovery rate [4] [%] | 55% DBC [5] [mg/mL-gel] | Recovery rate [6] [%] | 55% DBC [7] [mg/mL-gel]
Pep-SpGβ1-Wild.2dC | 5.2 | 43 | 21 | 28 | 10.4 |  | 
Protein G ligand of the commercial carrier HiTrap Protein-G HP (GE Healthcare) |  |  |  |  | 9.7 | 6 | 
Protein G ligand of the commercial carrier Protein-G Sepharose FF (GE Healthcare) |  |  |  |  |  |  | 6.2
